Measurements as given in article PMC9482650, “Quantitative fragmentomics allow affinity mapping of interactomes” (Nature Communications, 2022).

What was measured:
Assay in all cases: holdup assay
Parameters in all cases: key: below the threshold = too weak to quantify, mostly under pKd 3.1 to 4
Settings in all cases: plain residues with an end cap or a label only (N-terminal biotin on a linker: gsgsgs; C-terminal amide)
MAGI1_1, Q96QZ7 = molecular target: MAGI1_1, Q96QZ7
GIPC2, Q8TF65 = molecular target: GIPC2, Q8TF65
NHERF4_4, Q86UT5 = molecular target: NHERF4_4, Q86UT5
CASK, O14936 = molecular target: CASK, O14936
LIN7B, Q9HAP6 = molecular target: T1, LIN7B, Q9HAP6
T1 sequence (Q9HAP6 88-185, limits assumed, looked up): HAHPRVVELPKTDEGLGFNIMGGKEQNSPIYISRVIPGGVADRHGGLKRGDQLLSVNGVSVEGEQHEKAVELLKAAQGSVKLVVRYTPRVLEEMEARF

MAGI2_6, Q86UL8 = molecular target: MAGI2_6, Q86UL8
Inadl_3, Q8NI35 = molecular target: Inadl_3, Q8NI35
Inadl_8, Q8NI35 = molecular target: Inadl_8, Q8NI35
DLG3_1, Q92796 = molecular target: T2, DLG3_1, Q92796
T2 sequence (Q92796 125-227, limits assumed, looked up): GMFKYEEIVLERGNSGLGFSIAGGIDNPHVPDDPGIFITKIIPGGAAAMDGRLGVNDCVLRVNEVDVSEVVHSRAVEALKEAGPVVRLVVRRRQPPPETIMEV

SNTG1, Q9NSN8 = molecular target: T3, SNTG1, Q9NSN8
T3 sequence (Q9NSN8 52-150, limits assumed, looked up): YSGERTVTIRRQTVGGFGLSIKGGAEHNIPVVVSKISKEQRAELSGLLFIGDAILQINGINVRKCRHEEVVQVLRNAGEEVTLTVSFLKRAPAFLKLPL

TJP3_3, O95049 = molecular target: T4, TJP3_3, O95049
T4 sequence (O95049 375-456, limits assumed, looked up): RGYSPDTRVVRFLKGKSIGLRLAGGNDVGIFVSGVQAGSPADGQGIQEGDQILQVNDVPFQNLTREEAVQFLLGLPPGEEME

TJP1_3, Q07157 = molecular target: TJP1_3, Q07157
MPP2, Q14168 = molecular target: T5, MPP2, Q14168
T5 sequence (Q14168 180-250, limits assumed, looked up): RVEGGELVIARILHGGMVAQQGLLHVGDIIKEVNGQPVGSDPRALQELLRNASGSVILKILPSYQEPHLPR

NHERF3_3, Q5T2W1 = molecular target: T6, NHERF3_3, Q5T2W1
T6 sequence (Q5T2W1 238-333, limits assumed, looked up): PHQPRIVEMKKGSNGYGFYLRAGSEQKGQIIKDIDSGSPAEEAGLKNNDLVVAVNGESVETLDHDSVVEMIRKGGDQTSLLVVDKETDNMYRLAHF

DLG4_2, P78352 = molecular target: DLG4_2, P78352
DLG3_2, Q92796 = molecular target: T7, DLG3_2, Q92796
T7 sequence (Q92796 221-321, limits assumed, looked up): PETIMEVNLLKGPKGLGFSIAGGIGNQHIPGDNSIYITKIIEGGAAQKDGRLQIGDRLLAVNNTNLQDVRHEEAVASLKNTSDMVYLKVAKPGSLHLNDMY

PTPN13_1, Q12923 = molecular target: T8, PTPN13_1, Q12923
T8 sequence (Q12923 1088-1188, limits assumed, looked up): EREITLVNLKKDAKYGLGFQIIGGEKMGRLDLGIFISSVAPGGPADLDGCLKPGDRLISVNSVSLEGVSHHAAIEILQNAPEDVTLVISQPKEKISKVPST

APBA1_1, Q02410 = molecular target: T9, APBA1_1, Q02410
T9 sequence (Q02410 651-752, limits assumed, looked up): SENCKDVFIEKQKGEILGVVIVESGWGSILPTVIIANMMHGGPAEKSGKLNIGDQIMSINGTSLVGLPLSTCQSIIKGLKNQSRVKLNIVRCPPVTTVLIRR

DLG3_3, Q92796 = molecular target: T10, DLG3_3, Q92796
T10 sequence (Q92796 374-475, limits assumed, looked up): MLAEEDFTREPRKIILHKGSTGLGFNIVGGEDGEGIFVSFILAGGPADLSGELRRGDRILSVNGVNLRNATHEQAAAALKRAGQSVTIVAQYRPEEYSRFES

MAGI2_4, Q86UL8 = molecular target: MAGI2_4, Q86UL8
FRMPD2_3, Q68DX3 = molecular target: FRMPD2_3, Q68DX3
LNX1_1, Q8TBB1 = molecular target: LNX1_1, Q8TBB1
TX1BP3, O14907 = molecular target: T11, TX1BP3, O14907
T11 sequence (O14907 10-122, limits assumed, looked up): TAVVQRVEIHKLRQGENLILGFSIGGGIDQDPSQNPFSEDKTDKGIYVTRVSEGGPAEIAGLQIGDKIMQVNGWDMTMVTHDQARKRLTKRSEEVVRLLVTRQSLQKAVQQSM

GRIP1_2, Q9Y3R0 = molecular target: T12, GRIP1_2, Q9Y3R0
T12 sequence (Q9Y3R0 145-248, limits assumed, looked up): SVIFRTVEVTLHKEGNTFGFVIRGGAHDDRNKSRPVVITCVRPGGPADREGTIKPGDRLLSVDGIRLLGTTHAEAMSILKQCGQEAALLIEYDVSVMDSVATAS

Inadl_9, Q8NI35 = molecular target: Inadl_9, Q8NI35
LNX1_2, Q8TBB1 = molecular target: LNX1_2, Q8TBB1
Chain of LNX1_2, Q8TBB1 (Q8TBB1 371-470): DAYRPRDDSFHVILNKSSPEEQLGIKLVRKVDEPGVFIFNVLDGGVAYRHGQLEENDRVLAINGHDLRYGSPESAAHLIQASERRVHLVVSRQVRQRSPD

Chain of MAGI2_6, Q86UL8 (Q86UL8 1141-1229): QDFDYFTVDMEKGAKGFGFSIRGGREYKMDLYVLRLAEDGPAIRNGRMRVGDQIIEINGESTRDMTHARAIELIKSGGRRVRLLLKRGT
Chain of TJP1_3, Q07157 (Q07157 416-512): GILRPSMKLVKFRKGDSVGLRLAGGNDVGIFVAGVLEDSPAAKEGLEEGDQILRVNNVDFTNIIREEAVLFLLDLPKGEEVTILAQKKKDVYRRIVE
Chain of MAGI2_4, Q86UL8 (Q86UL8 772-865): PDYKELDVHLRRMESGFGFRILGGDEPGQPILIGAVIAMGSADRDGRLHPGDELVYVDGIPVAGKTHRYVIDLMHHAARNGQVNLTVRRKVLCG
Chain of NHERF4_4, Q86UT5 (Q86UT5 464-550): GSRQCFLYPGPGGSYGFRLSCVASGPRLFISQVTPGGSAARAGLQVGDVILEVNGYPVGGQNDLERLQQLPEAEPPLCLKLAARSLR
Chain of DLG4_2, P78352 (P78352 155-259): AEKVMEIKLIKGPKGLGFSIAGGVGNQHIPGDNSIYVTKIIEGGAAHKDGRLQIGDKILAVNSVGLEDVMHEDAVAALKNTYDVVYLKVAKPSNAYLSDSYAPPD
Chain of MAGI1_1, Q96QZ7 (Q96QZ7 1-106): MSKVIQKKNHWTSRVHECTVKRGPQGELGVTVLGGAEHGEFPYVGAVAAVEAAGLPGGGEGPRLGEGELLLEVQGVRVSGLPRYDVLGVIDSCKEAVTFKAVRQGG
Chain of Inadl_3, Q8NI35 (Q8NI35 359-469): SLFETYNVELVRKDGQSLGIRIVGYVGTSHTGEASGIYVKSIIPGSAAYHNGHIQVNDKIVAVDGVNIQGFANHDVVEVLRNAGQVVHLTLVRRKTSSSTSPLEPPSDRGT
Chain of CASK, O14936 (O14936 487-570): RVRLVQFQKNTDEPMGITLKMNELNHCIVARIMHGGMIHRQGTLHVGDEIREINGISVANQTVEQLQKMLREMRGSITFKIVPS
Chain of Inadl_9, Q8NI35 (Q8NI35 1530-1615): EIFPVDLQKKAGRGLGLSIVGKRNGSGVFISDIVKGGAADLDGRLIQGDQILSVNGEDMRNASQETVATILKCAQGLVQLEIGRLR
Chain of LNX1_1, Q8TBB1 (Q8TBB1 261-371): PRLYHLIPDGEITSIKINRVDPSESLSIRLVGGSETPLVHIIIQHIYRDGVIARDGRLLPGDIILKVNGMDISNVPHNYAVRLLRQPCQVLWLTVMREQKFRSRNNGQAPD
Chain of FRMPD2_3, Q68DX3 (Q68DX3 1073-1166): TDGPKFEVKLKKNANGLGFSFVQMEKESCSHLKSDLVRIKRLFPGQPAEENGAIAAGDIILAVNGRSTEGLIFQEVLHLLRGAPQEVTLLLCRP
Chain of GIPC2, Q8TF65 (Q8TF65 112-203): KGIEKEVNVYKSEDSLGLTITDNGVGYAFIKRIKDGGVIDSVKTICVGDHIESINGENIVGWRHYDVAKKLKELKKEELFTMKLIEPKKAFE
Chain of Inadl_8, Q8NI35 (Q8NI35 1425-1530): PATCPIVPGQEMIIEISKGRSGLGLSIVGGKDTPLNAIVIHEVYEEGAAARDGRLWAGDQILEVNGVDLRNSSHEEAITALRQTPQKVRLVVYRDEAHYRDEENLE

pKd (MAGI1_1, Q96QZ7): below the threshold
pKd (GIPC2, Q8TF65): below the threshold
pKd (NHERF4_4, Q86UT5): below the threshold
pKd (CASK, O14936): below the threshold
pKd (LIN7B, Q9HAP6): 3.48
pKd (MAGI2_6, Q86UL8): below the threshold
pKd (Inadl_3, Q8NI35): below the threshold
pKd (Inadl_8, Q8NI35): below the threshold
pKd (DLG3_1, Q92796): below the threshold
pKd (SNTG1, Q9NSN8): below the threshold
pKd (TJP3_3, O95049): below the threshold
pKd (TJP1_3, Q07157): below the threshold
pKd (MPP2, Q14168): below the threshold
pKd (NHERF3_3, Q5T2W1): below the threshold
pKd (DLG4_2, P78352): below the threshold
pKd (DLG3_2, Q92796): 4.12
pKd (PTPN13_1, Q12923): below the threshold
pKd (APBA1_1, Q02410): below the threshold
pKd (DLG3_3, Q92796): below the threshold
pKd (MAGI2_4, Q86UL8): below the threshold
pKd (FRMPD2_3, Q68DX3): below the threshold
pKd (LNX1_1, Q8TBB1): below the threshold
pKd (TX1BP3, O14907): below the threshold
pKd (GRIP1_2, Q9Y3R0): below the threshold
pKd (Inadl_9, Q8NI35): below the threshold
pKd (LNX1_2, Q8TBB1): below the threshold
Binder: VSVDDVRSTSQGLSSY [DFNB31_int, Q9P202]
